Reference: article PMC9668932

Target: heat shock protein HSP 90-beta, full length, His6-tagged (human) (UniProt P08238)
Assay: cryo-EM structure; ternary Hsp90-XAP2-AHR complex, co-expressed in Sf9 and co-purified, with indirubin at 5x molar excess; 20 mM Bis-Tris-HCl pH 7.0, 50 mM NaCl, 10 mM KCl, 10 mM MgCl2, 20 mM Na2MoO4, 2 mM BME; global map 2.85 Å, focused map 4.07 Å

Sequence of heat shock protein HSP 90-beta, full length, His6-tagged, P08238 1-724 (natural protein; other documents disagree on this pair) (P08238 whole entry): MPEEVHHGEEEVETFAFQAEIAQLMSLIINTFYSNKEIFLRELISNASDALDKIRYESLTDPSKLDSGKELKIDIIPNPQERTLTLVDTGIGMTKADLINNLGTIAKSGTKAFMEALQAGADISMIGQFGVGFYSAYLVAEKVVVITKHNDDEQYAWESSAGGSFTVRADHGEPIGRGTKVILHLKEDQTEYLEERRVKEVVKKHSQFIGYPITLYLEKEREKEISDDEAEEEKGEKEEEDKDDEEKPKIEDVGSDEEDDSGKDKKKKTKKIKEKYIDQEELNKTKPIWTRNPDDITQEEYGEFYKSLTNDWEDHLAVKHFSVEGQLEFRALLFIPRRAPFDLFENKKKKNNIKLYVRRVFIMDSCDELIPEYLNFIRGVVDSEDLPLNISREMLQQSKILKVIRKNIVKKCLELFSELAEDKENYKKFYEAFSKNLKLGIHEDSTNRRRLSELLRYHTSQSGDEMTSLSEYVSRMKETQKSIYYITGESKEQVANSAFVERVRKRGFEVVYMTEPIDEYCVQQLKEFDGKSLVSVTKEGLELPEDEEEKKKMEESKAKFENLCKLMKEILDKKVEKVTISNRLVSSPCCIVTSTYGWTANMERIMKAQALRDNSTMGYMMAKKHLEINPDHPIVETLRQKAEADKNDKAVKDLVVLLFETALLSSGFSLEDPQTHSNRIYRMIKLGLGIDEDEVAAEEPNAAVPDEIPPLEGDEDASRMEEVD

stoichiometry N: 2
Substance: heat shock protein HSP 90-beta, full length, His6-tagged, P08238 1-724 (natural protein; other documents disagree on this pair)
